In the supplement of paper PMC10567573:

B1: RHOBTB1 (parent)
chain: TFGDHHKDRRFAYGRSDVVVLCFS

Variants of: B1
Assay: protein stability index of a GFP-peptide fusion (GPS, HEK-293T) (PSI 1-6); higher = more stable
Conditions: c terminus: a fixed tail appended
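Further: lentivirally expressed fusions sorted by FACS into six bins by GFP to DsRed ratio, PSI derived from sequencing read proportions per bin multiplied by bin number.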

Variant	protein stability index
TFGDHHKLRRFAYGRSDVVVLCFS	4.19
TFGDHHKHRRFAYGRSDVVVLCFS	2.82
TFGDHHKSRRFAYGRSDVVVLCFS	2.76
TFGDHHKGRRFAYGRSDVVVLCFS	1.87
TFGDHHKFRRFAYGRSDVVVLCFS	1.92
TFGDHHKERRFAYGRSDVVVLCFS	2.77
TFGDHHKYRRFAYGRSDVVVLCFS	4.4
TFGDHHKPRRFAYGRSDVVVLCFS	2.77
TFGDHHKDSRFAYGRSDVVVLCFS	1.86
TFGDHHKDERFAYGRSDVVVLCFS	2.75
TFGDHHKDDRFAYGRSDVVVLCFS	3.4
TFGDHHKDHRFAYGRSDVVVLCFS	3.56
TFGDHHKDVRFAYGRSDVVVLCFS	3.55
TFGDHHKDLRFAYGRSDVVVLCFS	2.66
TFGDHHKDIRFAYGRSDVVVLCFS	3.77
TFGDHHKDTRFAYGRSDVVVLCFS	1.42
TFGDHHKDQRFAYGRSDVVVLCFS	3.83
TFGDHHKDKRFAYGRSDVVVLCFS	1.97
TFGDHHKDGRFAYGRSDVVVLCFS	2.82
TFGDHHKDNRFAYGRSDVVVLCFS	2.58
TFGDHHKDPRFAYGRSDVVVLCFS	3
TFGDHHKDRRFAYGRSDRVVLCFS	2.92
TFGDHHKDRRFAYGRSDGVVLCFS	1.68
TFGDHHKDRRFAYGRSDKVVLCFS	3.01

Variant	protein stability index
TFGDHHKDRRFAYGRSDAVVLCFS	1.74
TFGDHHKDRRFAYGRSDQVVLCFS	1.72
TFGDHHKDRRFAYGRSDEVVLCFS	2.19
TFGDHHKDRRFAYGRSDMVVLCFS	2.06
TFGDHHKDRRFAYGRSDTVVLCFS	1.54
TFGDHHKDRRFAYGRSDCVVLCFS	2.01
TFGDHHKDRRFAYGRSDSVVLCFS	1.46
TFGDHHKDRRFAYGRSDWVVLCFS	2.21
TFGDHHKDRRFAYGRSDPVVLCFS	1.58
TFGDHHKDRRFAYGRSDYVVLCFS	2.2
TFGDHHKDRRFAYGRSDNVVLCFS	1.57
TFGDHHKDRRFAYGRSDIVVLCFS	1.42
TFGDHHKDRRFAYGRSDLVVLCFS	3.53
TFGDHHKDRRFAYGRSDHVVLCFS	1.88
TFGDHHKDRRFAYGRSDDVVLCFS	2.03
TFGDHHKDRRFAYGRSDVCVLCFS	1.26
TFGDHHKDRRFAYGRSDVHVLCFS	2
TFGDHHKDRRFAYGRSDVWVLCFS	1.37
TFGDHHKDRRFAYGRSDVLVLCFS	2.82
TFGDHHKDRRFAYGRSDVTVLCFS	2.68
TFGDHHKDRRFAYGRSDVQVLCFS	1.52
TFGDHHKDRRFAYGRSDVSVLCFS	1.87
TFGDHHKDRRFAYGRSDVPVLCFS	1.69
TFGDHHKDRRFAYGRSDVMVLCFS	2.17

Variant	protein stability index
TFGDHHKDRRFAYGRSDVIVLCFS	2.14
TFGDHHKDRRFAYGRSDVNVLCFS	2.28
TFGDHHKDRRFAYGRSDVKVLCFS	1.92
TFGDHHKDRRFAYGRSDVEVLCFS	1.88
TFGDHHKDRRFAYGRSDVAVLCFS	2.23
TFGDHHKDRRFAYGRSDVRVLCFS	1.89
TFGDHHKDRRFAYGRSDVDVLCFS	2.93
TFGDHHKDRRFAYGRSDVGVLCFS	1.61
TFGDHHKDRRFAYGRSDVYVLCFS	2.45
TFGDHHKDRRFAYKRSDVVVLCFS	2.61
TFGDHHKDRRFAYDRSDVVVLCFS	2.49
TFGDHHKDRRFAYNRSDVVVLCFS	2.25
TFGDHHKDRRFAYTRSDVVVLCFS	3.19
TFGDHHKDRRFAYERSDVVVLCFS	1.99
TFGDHHKDRRFAYPRSDVVVLCFS	3.26
TFGDHHKDRRFAYQRSDVVVLCFS	3.11
TFGDHHKDRRFAYFRSDVVVLCFS	3.41
TFGDHHKDRRFAYHRSDVVVLCFS	1.85
TFGDHHKDRRFAYRRSDVVVLCFS	2.76
TFGDHHKDRRFAYSRSDVVVLCFS	1.75
TFGDHHKDRRFAYVRSDVVVLCFS	3.71
TFGDHHKDRRFAYIRSDVVVLCFS	2.49
TFGDHHKDRRFAYGQSDVVVLCFS	2.66
TFGDHHKDRRFAYGISDVVVLCFS	2.55

Variant	protein stability index
TFGDHHKDRRFAYGNSDVVVLCFS	1.84
TFGDHHKDRRFAYGESDVVVLCFS	1.75
TFGDHHKDRRFAYGYSDVVVLCFS	3.25
TFGDHHKDRRFAYGASDVVVLCFS	2.04
TFGDHHKDRRFAYGDSDVVVLCFS	2.36
TFGDHHKDRRFAYGLSDVVVLCFS	2.23
TFGDHHKDRRFAYGKSDVVVLCFS	2.27
TFGDHHKDRRFAYGPSDVVVLCFS	1.48
TFGDHHKDRRFAYGTSDVVVLCFS	2.11
TFGDHHKDRRFAYGSSDVVVLCFS	2.34
TFGDHHKDRRFAYGVSDVVVLCFS	4.25
TFGDHHKDRRFAYGRSPVVVLCFS	3.44
TFGDHHKDRRFAYGRSKVVVLCFS	1.63
TFGDHHKDRRFAYGRSFVVVLCFS	1.51
TFGDHHKDRRFAYGRSIVVVLCFS	3.11
TFGDHHKDRRFAYGRSCVVVLCFS	3.12
TFGDHHKDRRFAYGRSRVVVLCFS	1.79
TFGDHHKDRRFAYGRSQVVVLCFS	2.43
TFGDHHKDRRFAYGRSMVVVLCFS	3.13
TFGDHHKDRRFAYGRSWVVVLCFS	2.78
TFGDHHKDRRFAYGRSNVVVLCFS	2.23
TFGDHHKDRRFAYGRSTVVVLCFS	2.67
